Test results: US20260265354A1 (JIANGSU MABWELL HEALTH PHARMACEUTICAL R AND D, published 2026)

B1: Antibody MM11 (antibody, mouse IgG1, kappa, V domains shown)
VH: DVQLQESGPGLVKPSQSLSLTCSVTGYSITSNFYWNWIRQFPGNRLEWMGYISYDGSNNYNPSLKNRISISRDTSKNQFFLKLNSVTTEDTATYYCVRADYWGQGTLVTVSA
VL: DTVMTQTPLSLPVSLGDQASISCRSSQSLESSDGHAYLNWYLQKPGQSPQLLIYRVSNRFSGVLHRFSGSGSGTDFTLKISRVEAEDLGVYFCLQFTHVPFTFGSGTKLEIKR
notes: Mouse monoclonal antibody from hybridoma; also called Nectin-4 mouse monoclonal antibody MM11; mouse antibody MM11
B2: Antibody R012 (antibody, V domains shown)
VH: SKSVEESGGRLVTPGTPLTLTCTVSGFSLSTYAMSWVRQAPGKGLEYIGIISGRGTTYYASWLKGRFTISKTSTTVDLKITSPTTEDTATYFCARDAGISDVYTGYFNLWGQGTLVTVSS
VL: QPVLAQLPSASAALGASAKLTCTLSSAHRTYTIAWYQQQQGEAPRYLMMLKSDGSYTKGTGVPDRFSGSSSGADRYLIISSVQAADEADYYCGADDSGGYVFGGGTQLTVTG
notes: Rabbit monoclonal antibody from phage display; also called Nectin-4 rabbit monoclonal antibody R012; rabbit antibody R012
B3: Antibody R036 (antibody, V domains shown)
VH: SQSVEESGGRLVTPGTPLTLTCTVSGFSLSSYAMSWVRQAPGKGLEYIGIIGGRGTTYYAIWAKGRFTISKTSTTVDLKITSPTTEDTATYFCARDAGTTYVGTTYVATGYFNLWGQGTLVTVSS
VL: QPVLTQPPSASAALGASAKLTCTLSSAHKTYTIAWYQQQQGEAPRYLMILKSDGSYTRGTGVPDRFSGSSSGADRYLIISSVQADDEADYYCGADDSGGYVFGGGTQLTVTG
notes: Rabbit monoclonal antibody from phage display; also called Nectin-4 rabbit monoclonal antibody R036; rabbit antibody R036

What was measured:
Assay in all cases: ELISA, coated antigen, antibody at 100 ng/ml
[1] = biological target: T1, Nectin-like-5 (UniProt P15151 21-343)
T1 construct: Bought recombinant protein; also called CD155; PVR
T1 sequence (looked up): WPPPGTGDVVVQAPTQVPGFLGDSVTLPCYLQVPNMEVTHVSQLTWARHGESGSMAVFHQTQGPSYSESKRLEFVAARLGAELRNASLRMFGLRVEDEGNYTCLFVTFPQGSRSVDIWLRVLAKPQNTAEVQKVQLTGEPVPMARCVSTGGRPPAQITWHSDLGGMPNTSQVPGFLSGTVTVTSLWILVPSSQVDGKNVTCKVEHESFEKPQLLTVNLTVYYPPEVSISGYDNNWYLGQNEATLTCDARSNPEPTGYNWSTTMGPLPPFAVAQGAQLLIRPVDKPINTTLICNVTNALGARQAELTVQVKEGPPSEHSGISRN
Description: (§1) Coating: Nectin-1, Nectin-2, Nectin-3, Nectin-4, Nectin-like-1, Nectin-like-2, Nectin-like-3, Nectin-like-4, and Nectin-like-5 were diluted to 5 μg/ml in coating buffer (carbonate buffer, pH 9.6) respectively. A 96-well plate was coat with 100 μl per well and incubated overnight at 2-8° C.;
(§2) Sample loading: The plate was taken out, patted dry, and washed twice with 200 μl/well of PBST, then patted dry. The Nectin-4 antibodies prepared in Example 1 (antibody MM11, antibody R012, and antibody R036) were diluted with 1% BSA/PBST to concentrations of 10 μg/ml, 1 μg/ml, 100 ng/ml, and 10 ng/ml, respectively. 1% BSA/PBST solution for dilution was set as a blank control. 100 μl per well was added to the 96-well plate, and incubated at room temperature for 2 hours;
(§3) Reaction termination and plate reading: 100 μl/well of 1 mol/L H3PO4 was added to terminate the reaction and the plated was read. The absorbances of wells in the plate at 450 nm with 650 nm as reference wavelength were read and recorded as OD_{450 nm-650 nm}.

[2] = biological target: T2, Nectin-2 (UniProt Q92692 32-360, limits assumed)
T2 construct: Bought recombinant protein; also called CD112; PVRL-2
T2 sequence (looked up): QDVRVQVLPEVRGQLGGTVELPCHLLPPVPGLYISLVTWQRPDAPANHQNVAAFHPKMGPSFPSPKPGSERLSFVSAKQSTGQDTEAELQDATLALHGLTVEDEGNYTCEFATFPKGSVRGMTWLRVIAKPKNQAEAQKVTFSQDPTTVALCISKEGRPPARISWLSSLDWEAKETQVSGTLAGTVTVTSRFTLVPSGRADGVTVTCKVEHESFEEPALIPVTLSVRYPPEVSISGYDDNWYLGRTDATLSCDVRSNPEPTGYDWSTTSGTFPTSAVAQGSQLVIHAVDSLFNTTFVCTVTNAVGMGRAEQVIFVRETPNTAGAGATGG
Description: as §1, §2, §3

[3] = biological target: T3, Nectin-like-1 (UniProt Q8N126 25-330, limits assumed)
T3 construct: Bought recombinant protein; also called CADM3; IgSF4B
T3 sequence (looked up): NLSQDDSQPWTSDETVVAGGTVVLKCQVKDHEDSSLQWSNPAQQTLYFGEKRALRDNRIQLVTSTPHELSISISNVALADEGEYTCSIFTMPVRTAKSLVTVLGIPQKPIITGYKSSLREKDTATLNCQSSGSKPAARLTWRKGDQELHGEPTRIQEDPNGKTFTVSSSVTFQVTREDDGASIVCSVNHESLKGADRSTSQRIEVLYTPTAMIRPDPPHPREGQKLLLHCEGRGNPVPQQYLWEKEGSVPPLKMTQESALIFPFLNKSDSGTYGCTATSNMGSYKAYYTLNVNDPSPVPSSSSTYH
Description: as §1, §2, §3

[4] = biological target: T4, Nectin-3 (UniProt Q9NQS3 58-404, limits assumed)
T4 construct: Bought recombinant protein; also called CD113; PVRL-3
Description: as §1, §2, §3

[5] = biological target: T5, Nectin-like-2 (UniProt Q9BY67 45-374, limits assumed)
T5 construct: Bought recombinant protein; also called CADM1; IgSF4
T5 sequence (looked up): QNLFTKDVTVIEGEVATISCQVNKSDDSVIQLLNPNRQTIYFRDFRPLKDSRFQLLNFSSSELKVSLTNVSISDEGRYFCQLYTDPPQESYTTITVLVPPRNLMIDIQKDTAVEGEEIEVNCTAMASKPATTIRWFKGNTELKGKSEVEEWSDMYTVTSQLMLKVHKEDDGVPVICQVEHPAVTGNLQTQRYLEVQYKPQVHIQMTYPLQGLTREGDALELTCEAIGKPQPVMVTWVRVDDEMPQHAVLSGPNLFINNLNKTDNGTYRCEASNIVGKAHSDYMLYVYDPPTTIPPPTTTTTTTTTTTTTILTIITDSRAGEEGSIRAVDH
Description: as §1, §2, §3

[6] = biological target: T6, recombinant human Nectin-4 protein (human, UniProt Q96NY8 32-349)
T6 construct: Prepared in-house (Jiangsu Mabwell) by transient transfection of CHO cells; also called PVRL-4; PRR-4
T6 sequence: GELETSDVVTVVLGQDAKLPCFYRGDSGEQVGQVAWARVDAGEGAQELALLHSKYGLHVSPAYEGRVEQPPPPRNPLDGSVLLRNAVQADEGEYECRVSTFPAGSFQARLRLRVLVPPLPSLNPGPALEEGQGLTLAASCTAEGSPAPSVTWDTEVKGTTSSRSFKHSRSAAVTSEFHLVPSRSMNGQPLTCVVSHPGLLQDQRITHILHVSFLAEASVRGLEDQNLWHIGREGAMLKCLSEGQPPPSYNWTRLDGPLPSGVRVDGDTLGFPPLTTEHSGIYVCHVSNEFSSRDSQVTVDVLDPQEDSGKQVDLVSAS
Description: as §1, §2, §3

[7] = biological target: T7, Nectin-like-4 (UniProt Q8NFZ8 21-324, limits assumed)
T7 construct: Bought recombinant protein; also called CADM4; IgSF4C
T7 sequence (looked up): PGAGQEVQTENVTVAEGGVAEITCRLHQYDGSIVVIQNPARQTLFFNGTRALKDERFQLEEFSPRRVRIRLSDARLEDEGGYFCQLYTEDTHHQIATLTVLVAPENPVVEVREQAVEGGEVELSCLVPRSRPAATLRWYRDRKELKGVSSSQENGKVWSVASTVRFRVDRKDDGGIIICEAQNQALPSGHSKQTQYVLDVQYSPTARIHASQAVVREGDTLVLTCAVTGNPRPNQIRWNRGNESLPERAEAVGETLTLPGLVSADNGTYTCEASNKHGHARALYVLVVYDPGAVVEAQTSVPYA
Description: as §1, §2, §3

T4 sequence (Q9NQS3 58-404 limits assumed): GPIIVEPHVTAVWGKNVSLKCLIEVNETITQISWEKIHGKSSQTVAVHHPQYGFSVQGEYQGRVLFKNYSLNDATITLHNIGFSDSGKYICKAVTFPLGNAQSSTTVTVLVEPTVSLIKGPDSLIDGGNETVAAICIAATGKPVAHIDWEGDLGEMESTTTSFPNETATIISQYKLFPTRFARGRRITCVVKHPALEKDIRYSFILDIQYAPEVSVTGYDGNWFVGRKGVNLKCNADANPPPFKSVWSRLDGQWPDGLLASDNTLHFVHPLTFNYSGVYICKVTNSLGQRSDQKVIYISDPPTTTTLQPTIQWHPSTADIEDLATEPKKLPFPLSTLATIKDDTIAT

Row | Binder | OD detection value [1] [OD450 nm-650 nm] | OD detection value [2] [OD450 nm-650 nm] | OD detection value [3] [OD450 nm-650 nm] | OD detection value [4] [OD450 nm-650 nm] | OD detection value [5] [OD450 nm-650 nm] | OD detection value [6] [OD450 nm-650 nm] | OD detection value [7] [OD450 nm-650 nm]
1 | B1 | 0.007 | 0.007 | 0.01 | 0.014 | 0.007 | 1.64 | 0.007
2 | B2 | 0.008 | 0.007 | 0.008 | 0.007 | 0.008 | 1.44 | 0.008
3 | B3 | 0.009 | 0.007 | 0.007 | 0.007 | 0.007 | 1.48 | 0.007
